What follows are molecules tested on IgE antibodies from soybean-allergic patients (assay: Immunoblotting of two-dimensional electrophoresis pattern of soybean proteins with patient serum). Conditions: spot in 2D electrophoresis gel of soybean proteins; patient serum compared with healthy subject serum.
Assay type: binding, human
Description: Transfer to membrane was done using the following transfer system and transfer buffer. • Transfer system: XCell SureLock Mini-Cell and XCell II Blot Module (produced by Life Technologies) • Transfer buffer: NuPAGE Transfer Buffer (X20) (produced by Life Technologies), used in a form diluted 20-fold with milliQ water.
To be specific, proteins in the two-dimensional electrophoresis gels were transferred to a membrane (PVDF membrane) according to the following procedure. • (1) The PVDF membrane was immersed in 100% methanol followed by milliQ water, and then moved into the transfer buffer to hydrophilize the PVDF membrane. • (2) After sponge, filter paper, the gels treated by second-dimensional SDS-PAGE, the hydrophilized PVDF membrane, filter paper, and sponge were put in place in this order, the transfer system was energized at a constant voltage of 30 V for one hour.
Immunoblotting of the membrane was carried out using, as a primary antibody, a serum sample from a patient with a soybean allergy or a serum sample from a healthy subject.
Immunoblotting of the membrane was carried out according to the following procedure. • (1) The transferred membrane was shaken in a 5% skim milk/PBST solution (a PBS buffer containing 0.3% Tween 20 nonionic surfactant) at room temperature for one hour. • (2) The membrane was left to stand in a solution of 3% primary antibody serum in 5% skim milk/PBST at room temperature for one hour. • (3) The membrane was washed with a PBST solution (5 min.×3 times). • (4) The membrane was left to stand in a 1:2500 dilution of the secondary antibody, anti-human IgE-HRP (horseradish peroxidase), with a 3% skim milk/PBST solution at room temperature for one hour. • (5) The membrane was washed with a PBST solution (5 min.×3 times). • (6) The membrane was left to stand in Pierce Western Blotting Substrate Plus (produced by Thermo Fisher Scientific) for 5 minutes.
The membrane obtained through the foregoing series of treatments was subjected to fluorescent image scanning on Typhoon 9400 (produced by GE).
The immunoblots obtained with the serum from the soybean-allergic patient were compared with those obtained with the control serum from the healthy subject.

Row | Molecule | specific binding to IgE antibodies from soybean-allergic patients
1 | alcohol dehydrogenase 1 (protein, Glycine max, spot also identified as alcohol dehydrogenase 1-like) MSSSTVGQVIKCKAAVSWEAGKPLVIEEVEVAPPQAGEVRLKILYTSLCHTDVYFWEAKGQTPLFPRIFGHEAGGIVESVGEGVTHLKPGDHALPVFTGECGECPHCKSEESNMCDLLRINTDRGVMIHDSQTRFSIKGQPIYHFVGTSTFSEYTVVHAGCVAKVNPAAPLDKICVLSCGICTGLGATINVAKPKPGSSVAIFGLGAVGLAAAEGARISGASRIIGVDLVSSRFEEAKKFGVNEFVNPKDHDKPVQEVIAAMTNGGVDRAVECTGSIQAMISAFECVHDGWGVAVLVGVPNKDDAFKTHPVNFLNERTLKGTFYGNYKPRTDLPSVVEKYMNGELELEKFITHTVPFSEINKAFDYMLKGESIRCIIRMGE | specific binding
2 | 14-3-3-like protein (protein) MAAAPSPREENVYMAKLAEQAERYEEMVEFMEKVSAAADNEELTVEERNLLSVAYKNVIGARRASWRIISSIEQKEESRGNEDHVSVIRDYRSKIESELSNICDGILKLLDSRLIPSASSGDSKVFYLKMKGDYHRYLAEFKTGAERKEAAESTLSAYKAAQDIANAELPPTHPIRLGLALNFSVFYYEILNSPDRACNLAKQAFDEAIAELDTLGEESYKDSTLIMQLLRDNLTLWTSDMQDDGADEIKEAAPKPDDQ | specific binding
3 | eukaryotic translation initiation factor 5A-2 (protein, Glycine max, spot also identified as uncharacterized protein LOC100305510) MSDEEHHFESKADAGASKTYPQQAGTIRKNGYIVIKGRPCKVVEVSTSKTGKHGHAKCHFVGIDIFTAKKLEDIVPSSHNCDVPHVNRTDYQLIDIAEDGFLSLLTENGNTKDDLKLPTDESLLTQIKDGFAEGKDLVVSVMSAMGEEQICALKDIGPKN | specific binding
4 | ATP synthase subunit O, mitochondrial-like (protein) MALCNRVRSGISLFTKSTFLTSQRSTLQRSLVAPFISLASRNYANVPGQKETKVKVPLALFGGSGNYASALYIASVKANAVEKVETELLQFVEAVKNSPIFSQFIRDLSVAKDVRVKVIQDICGEAKFSDVTKNFLVIVAENGRLKNIDTIAKRFAQLSMAYKGEVQATVTTVVPLPPEEEKALKETLQEIIGSGAKVHLEQKIDPSILGGLVLEFSQKVFDMSIKTRAQQMERILREPVSIANI | specific binding
5 | P24 oleosin isoform A (protein, Glycine max) MTTQVPPHSVQVHTTTHRYEAGVVPPGARFEPPRYEAGVKAPSIYHSERGPTTSQVLAVLAGLPVGGILLLLAGLTLAGTLTGLAVATPLFVLFSPVLVPATVAIGLAVAGFLTSGAFGLTALSSFSWILNYIRETQPASENLAAAAKHHLAEAAEYVGQKTKEVGQKTKEVGQDIQSKAQDTREAAARDAREAAARDAREAAARDAKVEARDVKRTTVTATTATA | specific binding
6 | phosphoglycerate kinase, cytosolic (protein, Glycine max) MATKRSVGTLKEGDLKGKRVFVRVDLNVPLDDNLNITDDTRVRAAVPTIKYLTGYGAKVILSSHLGRPKGVTPKYSLKPLVPRLSQLLGIEVTMANDSIGEEVEKLVTQLPEGGVLLLENVRFYKEEEKNDPEFAKKLASLADLYVNDAFGTAHRAHASTEGVAKYLKPSVAGFLMQKELDYLVGAVSNPKRPFAAIVGGSKVSSKIGVIESLLEKVNVLLLGGGMIFTFYKAQGYSVGSSLVEEDKLSLATTLLEKAKAKGVSLLLPTDVVIADKFAADANSKTVPASSIPDGWMGLDIGPDSIKTFGEALDTTQTIIWNGPMGVFEFDKFATGTEAIAKKLAELSGKGVTTIIGGGDSVAAVEKVGLADKMSHISTGGGASLELLEGKQLPGVLALDDA | specific binding
7 | uncharacterized protein At3g49720-like isoform X2 (protein) MTRKQASSTRRGGLSGVLHSKSKSSPLLSISLVLFVAILLILYACIGSGILGGRKDVISMAEDDFSCTFEVPSAIPVLKNAYGGSMKNVLHVGPESCSVVSKFLREGETEAWGVEPYDLDDADRNCKALVQKGIIRVADIKFPLPYRVKSFSHVIVSDALDYLSPKYINKTLPELARVSSDGIIIFTGYPGQPRAKIAPLSKFGRPHRC | specific binding
8 | seed maturation protein PM22 (protein) MSQLLDKAKNFVSEKVNDMAKPEASVTDVDFKRVSKDNVEYLAKVSVRNPYSTSIPICEINYSFKSASREIASGKIPDPGSLKAKDTTMVDVPVKVPYSILMSLAKDIGADWDIDYQLDLGLVIDVPVIGIFTIPLSQKGEIKLPTLSTMFA | specific binding
9 | uncharacterized protein LOC100306570 (protein) MASQSNTKSVHDFTVKDARGNNVNLADYKGKVLLIVNVASQCGLTNSNYTELNQLYEKYKGKGLEILAFPCNQFGAQEPGTNEEIVEFACTRFKAEFPIFDKVDVNGDNAAPLYKFLKSSKGGLFGDSIKWNFSKFLVDKDGNVVDRYAPTTSPLSIEKDIKKLLDA | specific binding
10 | 35 kDa seed maturation protein isoform X1 (protein) MASRQQFKEDRAEAAAKLAAKDIGDINRTNERDEGYDLHDEANFKQARAEAAAKLAAKDLEDANRLRDNTFNTWKEQHQHDENKPGVIGSMFRAAKEAVVGKPHHEEVYAKETKMGEYSDYATQKARETKQKAGEYTDYAAQKAKETKDYAAEKAKNAKDTTVQKAGEYKDYTAEKAKNAKDTTVQKAGEYKDYTAEKAIEGKDSAVGKLGELKESAADAAKRAMGFFTGGNKDQTREEEEETRRSMQEVRVQDKEYGTGRGTGEKLVIKMEESRPGAVADALKAANRAMDGDMEEEGVLHVERRREKM | specific binding
11 | uncharacterized protein LOC100499771 (protein, Glycine max, spot also identified as hypothetical protein GLYMA_09G192800) MAPIAVGDVIPDGILAYLDEENKPQTVSIHSLAAGKKVIIFGVPGAFTPTCSLKHVPGFIERAEELKGKGVDEIICISVNDPFVMNSWAKTFPENKHVKFLADGAAKYTNALGLELDLTDKGLGVRSKRFALLVEDLKVKVANVESGGEFTISSAEEIIKAL | specific binding
12 | uncharacterized protein LOC100813859 (protein) MASEESQNKPPSEQSTTELITSAKLVAEAAQSALKSDSDKVDKAKVADAAGDLLDAAGKYGKLDDKQGIGQYVDKAADYLHNYQGDNTTAPSQPAESKGEESGGGLGGLANLAGGFFKK | specific binding
13 | superoxide dismutase [Mn], mitochondrial (protein, Glycine max, spot also identified as hypothetical protein GLYMA_04G221300) MAARALLTRKTLATVLRNDAKPIIGVGITAAATHSRGLHVYTLPDLDYDYGALEPAISGDIMQLHHQKHHQTYITNYNKALEQLQDAIAKKDSSAVVKLQGAIKFNGGGHVNHSIFWKNLAPVREGGGEPPKGSLGWAIDTHFGSFEALIQKVNAEGAALQGSGWVWLGLDKELKRLVVETTANQDPLVTKGPNLVPLIGIDVWEHAYYLQYKNVRPDYLKNIWKVINWKYASEVYEKESS | specific binding
14 | seed maturation protein PM34 (protein, Glycine max, spot also identified as uncharacterized protein LOC100809384 and hypothetical protein GLYMA_10G155300) MASGEQKFPPQQQQTQPGKEHAMTPVPQFTSPDYKPSNKLQGKIALVTGGDSGIGRAVCNLFALEGATVAFTYVKGHEDKDARDTLEMIKRAKTSDAKDPMAIASDLGYDENCKRVVDEVVSAYGCIDILVNNAAEQYECGTVEDIDEPRLERVFRTNIFSYFFMARHALKHMKEGSSIINTTSVNAYKGHAKLLDYTSTKGAIVAYTRGLALQLVSKGIRVNGVAPGPIWTPLIPASFKEEETAQFGAQVPMKRAGQPIEVAPSYVFLASNQCSSYITGQVLHPNGGTVVNG | specific binding
15 | probable fructokinase-4 (protein) MALNNGVPATGTGLIVSFGEMLIDFVPTVSGVSLAEAPGFLKAPGGAPANVAIAVSRLGGKAAFVGKLGDDEFGHMLAGILKENGVRADGINFDQGARTALAFVTLRADGEREFMFYRNPSADMLLKPEELNLELIRSAKVFHYGSISLIVEPCRSAHLKAMEVAKESGCLLSYDPNLRLPLWPSAEEARKQILSIWEKADLIKVSDAELEFLTGSDKIDDESALSLWHPNLKLLLVTLGEHGSRYYTKSFKGSVDAFHVNTVDTTGAGDSFVGALLAKIVDDQSILEDEPRLREVLKFANACGAITTTQKGAIPALPKEEAALKLIKGGS | specific binding
